This is an account of results in paper PMC2172279.

Common to all, as to assay: co-sedimentation
Assay [1] has as its target MD2IQ heavy chain (murine myosin V motor domain and the first two IQ motifs) (murine) (UniProt Q99104).
The target in assay [2] is dHMM heavy chain (dilute heavy meromyosin: six IQ motifs followed by a coiled-coil tail) (murine) (UniProt Q99104).
The target in assay [3] is dFull heavy chain (expressed full-length murine myosin V) (murine).

As to “wild-type calmodulin (WT-CaM) (from UniProt P0DP33 1-149) (natural protein)”, the mol CaM dissociated per mol HC in calcium (mol CaM per mol HC) turned out to be 0.5 in assay [1], 1.5 in assay [2] and 1.7 in assay [3].
